Laboratory results from patent publication US20210032291A1 (University of Pennsylvania, published 2021).
Bridge positions count the residues as written; N and C are the ends. Square brackets hold non-standard residues; d marks the D form. Ends that are not written are not given here. Trp(1-Me) = Cn1cc(C[C@H](N)C(=O)O)c2ccccc21; NMeI = CC[C@H](C)[C@H](NC)C(=O)O; Orn = NCCC[C@H](N)C(=O)O; Sar = CNCC(=O)O

These binders were tested against T1, C3 protein (target in the classical-pathway complement activation ELISA) (assay: cell-based or functional assay).

IC50, peptide concentration to reach 50% inhibition of classical pathway complement activation (ELISA)	Binder
180 nM	Me-ICVWQDW[Sar]AHRC[NMeI]-NH2 (disulfide 2-12; not fully specified (residue 4); printed as Me-Ile-[Cys-Val-Trp(Me)-Gln-Asp-Trp-Sar-Ala-His-Arg-Cys]-mIle-NH2) [Peptide 1: Me-Ile-[Cys-Val-Trp(Me)-Gln-Asp-Trp-Sar-Ala-His-Arg-Cys]-mIle-NH2]
72 nM	YICV[Trp(1-Me)]QDW[Sar]AHRC[NMeI]-NH2 (disulfide 3-13) [Peptide 4: Tyr-Ile-[Cys-Val-Trp(Me)-Gln-Asp-Trp-Sar-Ala-His-Arg-Cys]-mIle-NH2]
113 nM	GICV[Trp(1-Me)]QDW[Sar]AHRC[NMeI]-NH2 (disulfide 3-13; N-terminus assumed; SMILES CC[C@H](C)[C@H](NC(=O)CN)C(=O)N[C@H]1CSSC[C@@H](C(=O)N(C)[C@H](C(N)=O)[C@@H](C)CC)NC(=O)[C@H](CCCNC(=N)N)NC(=O)[C@H](Cc2c[nH]cn2)NC(=O)[C@H](C)NC(=O)CN(C)C(=O)[C@H](Cc2c[nH]c3ccccc23)NC(=O)[C@H](CC(=O)O)NC(=O)[C@H](CCC(N)=O)NC(=O)[C@H](Cc2cn(C)c3ccccc23)NC(=O)[C@H](C(C)C)NC1=O) [Peptide 2: Gly-Ile-[Cys-Val-Trp(Me)-Gln-Asp-Trp-Sar-Ala-His-Arg-Cys]-mIle-NH2]
82 nM	GICVWQDWGAHRCI (Sar (N-methyl-Gly) at Xaa0 (N-terminus); Trp(Me) at position 4; Sar at position 8; mIle at position 13; C-terminal -NH2; cyclic via Cys2-Cys12 disulfide (compstatin position numbering)) [Compstatin 30 (Cp30): Sar-Ile-[Cys-Val-Trp(Me)-Gln-Asp-Trp-Sar-Ala-His-Arg-Cys]-mIle-NH2]
132 nM	Ac-ICV[Trp(1-Me)]QDWGAHRCT-NH2 (disulfide 2-12) [4(1MeW): Ac-Ile-[Cys-Val-Trp(Me)-Gln-Asp-Trp-Gly-Ala-His-Arg-Cys]-Thr-NH2]

Biological target: T1, C3 protein (target in the …)
Assay: cell-based or functional assay
Remark: another data set of the same source

IC50, peptide concentration to reach 50% inhibition of classical pathway complement activation	Binder
0.36 nM	[dY]ICV[Trp(1-Me)]QNW[Sar]AH[Orn]C[NMeI]-NH2 (disulfide 3-13) [Cp40 (11Orn 6Asn)]
0.22 nM	[dY]ICV[Trp(1-Me)]QDW[Sar]AH[Orn]C[NMeI]-NH2 (disulfide 3-13) [Cp40 (11Orn)]
0.26 nM	[dY]ICV[Trp(1-Me)]QNW[Sar]AHRC[NMeI]-NH2 (disulfide 3-13; N-terminus assumed; SMILES CC[C@H](C)[C@H](NC(=O)[C@H](N)Cc1ccc(O)cc1)C(=O)N[C@H]1CSSC[C@@H](C(=O)N(C)[C@H](C(N)=O)[C@@H](C)CC)NC(=O)[C@H](CCCNC(=N)N)NC(=O)[C@H](Cc2c[nH]cn2)NC(=O)[C@H](C)NC(=O)CN(C)C(=O)[C@H](Cc2c[nH]c3ccccc23)NC(=O)[C@H](CC(N)=O)NC(=O)[C@H](CCC(N)=O)NC(=O)[C@H](Cc2cn(C)c3ccccc23)NC(=O)[C@H](C(C)C)NC1=O) [Cp40 (6Asn)]
